The supplement of paper PMC9170038

Test system: MS2 coat protein
Assay: apparent KD of MS2 coat protein; designed switch direction (-1 OFF switch, 1 ON switch): 1; higher = weaker reporter binding
Summary of the method: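 Transcription of designed RNA switches on Illumina chips was done by stalled E. coli RNA polymerase. SNAP-549-labelled MS2 coat protein was then titrated in doubling steps from 0.7 or 1.5 nM to 3 µM, with steps of 0.8–1.5 h at the lowest and 10–20 min at the highest concentration. The per-design median over clusters of curve-fitted normalised fluorescence is reported as apparent KD.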

[1] = input ligand: microRNA oligo, concentration not stated
[2] = Eterna round: R95, input ligand: FMN 200 uM
[3] = Eterna round: R95, input ligand: microRNA oligo, concentration not stated
[4] = Eterna round: R95, input ligand: none

Sequence | apparent KD of MS2 coat protein [1] [nM] | apparent KD of MS2 coat protein [2] [nM] | apparent KD of MS2 coat protein [3] [nM] | apparent KD of MS2 coat protein [4] [nM] | apparent KD of MS2 coat protein (input ligand: FMN 200 uM) [nM] | apparent KD of MS2 coat protein (input ligand: none) [nM]
AUUAUUAAUGCAGGAUAUGAUUAACAUGAGGAUCACCCAUGUGGUGUUGUGAGUAAGGAGAGUGAUCAGAAGGGCAUUUUUUUU [JMF's solution 6] (Eterna round: R96, puzzle: Same State NG 2) | 463 | – | – | – | – | –
AGCUAUCGAAAACGAUAGCAAAAGCAUGUACAUGAGGAUCACCCAUGUCAUGUACAAGCUUUUUGUUCGUCUUAAAA [Zipper 23 - 14] (puzzle: Sensor for hsa-mir-208a) | – | 430 | 11.7 | 334 | – | –
UUAUCUUUCCGAGGAUAUCCAUAUAAUUUACAUGAGGAUCACCCAUGUUAUUGGGAGUUUUUUUAGGAGAAGGCGGUUGUAGAU [JR_SSNG2_Sub051] (Eterna round: R96, puzzle: Same State NG 2) | 61.4 | – | – | – | 85.1 | 71.1
CCAACGUACAAUUUAGAUCUACAUGAGGAUCACCCAUGUACGGAGGAUAUCAGCUCGAUUAGAGCUGAGAAGGCCGAAUUAAUU [SSNG3/2-A2] (Eterna round: R96, puzzle: Same State NG 3) | 119 | – | – | – | 65.7 | 430
AACUGUUUCUGAGGAUAUCAGUAGUAUGCCAAUUGAGAAGGCAGUACAUGAGGAUCACCCAUGUUGUGGUUUGAUAGAAUGAUA [JR_SSNG1_Sub003] (Eterna round: R96, puzzle: Same State NG 1) | 133 | – | – | – | 182 | 214
GCGAGCGUACUUGCUACAUGAGGAUCACCCAUGUUUGAUGGACAGGAUAUGGUACCGUUUCGGUACCAGAAGGGUUCACAUGUA [JL SSNG3 3.79] (Eterna round: R96, puzzle: Same State NG 3) | 268 | – | – | – | 71.4 | 214
UACUUGGUGGUAGGAUAUGUAGGAUAUGGCGAGAGCUAAGCUUGGAAGUCACUUCAGCCAGAAGGACAGAAGGACCAGUAUCUC [pwkr ssNG2 2FMN + F9.11] (Eterna round: R96, puzzle: Same State NG 2) | 11.5 | – | – | – | 1450 | 81.6
UUGAAGAAUUAAGGAUAUUGAAUACAUAUGUUUAACAUGAGGAUCACCCAUGUGGGUUGCGGUAUCGAGAAGGUAAAAUAAUAG [Mat - Same State NG 2 - JL mod - D4] (Eterna round: R96, puzzle: Same State NG 2) | 91.8 | – | – | – | 118 | 110
UGUUGUAUUACAGGAUAUCUAUUAUUUUUAAUUAGAGAAGGGUAUUCACAUGAGGAUCACCCAUGUAUAUACGAGGAAGUUGUG [JMF's solution 25] (Eterna round: R96, puzzle: Same State NG 1) | 27.5 | – | – | – | – | –
AAUCGUUUGAUAGGAUAUCGCUAUACAUGAGGAUCACCCAUGUUUACCACGCUGGUUUUUCGUACUGAGAAGGAUUCUGAUGAU [JL JR sub007 mod 7] (Eterna round: R96, puzzle: Same State NG 2) | 30.4 | – | – | – | 36.1 | 42.5
AGUCCAGCCUGAGCUGGACAAAAGCAUGUACAUGAGGAUCACCCAUGUCAUGUACAAGCUUUAUGCUCGUCUUAAAA [Mat - hsa-mir-208a - Mod of JL - D15] (puzzle: Sensor for hsa-mir-208a) | – | 224 | 15.6 | 298 | – | –
GGAGCCGGCCUAGGAUAUUUCAUAGAAAAACAUGAGGAUCACCCAUGUAGGCCAGAAGGCCUUGGGAAGAAGGAGGUCGGCUCC [Loop Effect - G25] (Eterna round: R96, puzzle: Same State NG 2) | 19.5 | – | – | – | 9.45 | 31.2
AGGCUCAGACUAGGAUAUACGUGGUCACAUGAGGAUCACCCAUGUCUCGAGCUUCGGCUCGAGGCGUAGAAGGAGUCUGAGCCA [SSNG2/6-D1] (Eterna round: R96, puzzle: Same State NG 2) | 260 | – | – | – | 119 | 371
GGUCCAGCCUGAGCUGGACAAAAGCAUGUACAUGAGGAUCACCCAUGUCAUGUACAAGCUUUUUGCUCGUCUUAAGU [Mat - hsa-mir-208a - 86] (Eterna round: R96, puzzle: Sensor for hsa-mir-208a) | 14.1 | – | – | – | 625 | 687
GGAUGAUUAAUAGGAUAUUAUUUGUAAUUUGGUUAAGAAGGAUUAAUGAUUUAAACGACCUGUUACAUGAGGAUCACCCAUGUU [JR_SSNG1_Sub089] (Eterna round: R96, puzzle: Same State NG 1) | 76.5 | – | – | – | – | –
UUGAUGUACUGAGGAUAUCGUGUCGUCUGAUUUUACAUGAGGAUCACCCAUGUGGGUUGUGGUAUCGAGAAGGCAGUUUUCUUA [JR_SSNG2_Sub029] (Eterna round: R96, puzzle: Same State NG 2) | 84.3 | – | – | – | 50.4 | 158
GAGGAACAGGCCAACAUGAGGAUCACCCAUGUCCUCGCAUUUCAGGAUAUCUGGAAGAAGAAAAAAGAGAAGGGAAGGUGAAGC [AK SSNG3-V2-34.3] (Eterna round: R96, puzzle: Same State NG 3) | 140 | – | – | – | 198 | 165
GUAGCAUACCGAGGAUAUUCAAAUUAACAUGAGGAUCACCCAUGUAGGCCACAUUAGUGGCCUUGGGAGAAGGCGGAAUGCUAC [Xeonanis - 20 Mod39] (Eterna round: R96, puzzle: Same State NG 2) | 43.1 | – | – | – | 13.3 | 60.7
UUACAGUGCGGGUAGGAUAUGUAGGGUGGUACAUGAGGAUCACCCAUGUAUCCACCCUUCGACCGGCAGAAGGGCCUGUCACUAC [Atarzale] (Eterna round: R96, puzzle: Same State 2) | 12.1 | – | – | – | 14 | 19.8
GCCGAACAUGAGGAUCACCCAUGUCUGGGUAAUCAAGGAUAUGGGAAGGCUUUGCCAUGACCAGAAGGUGGUUAUC [Zari] (Eterna round: R96, puzzle: Same State 1) | 38.9 | – | – | – | 26.3 | 53.5
GGAGCCAGCACCGAGGAUAUUCAUAUUAAAACAUGAGGAUCACCCAUGUAGGCCAGAAGGCCUUGGGAGAAGGCGGACUGGCUCG [Xeonanis - 11] (puzzle: Same State 2) | – | 28.5 | 221 | 976 | – | –
GUUAAACAUGAGGAUCACCCAUGUAAUAUAAUGGGAGGAUAUCUGAAUUAAUUAAAUUAAGGAGAAGGCCUAAUGG [Mat - Same State 1 - Mod of Eli - D51] (puzzle: Same State 1) | – | 83.3 | 481 | 608 | – | –
GGAUCGGAGGCAGGAUAUGGGCUCAGAACAUGAGGAUCACCCAUGUAAAACGGCGCAAUGCGCCACCAGAAGGGCCUCCAGUCG [Esussoed] (Eterna round: R96, puzzle: Same State NG 2) | 25.7 | – | – | – | 13.2 | 44.1
